Reference: IntAct's records for PubMed 35107372

B1: Nucleolar RNA helicase 2 (Homo sapiens), Q9NR30 (parent)
chain: MPGKLRSDAGLESDTAMKKGETLRKQTEEKEKKEKPKSDKTEEIAEEEETVFPKAKQVKKKAEPSEVDMNSPKSKKAKKKEEPSQNDISPKTKSLRKKKEPIEKKVVSSKTKKVTKNEEPSEEEIDAPKPKKMKKEKEMNGETREKSPKLKNGFPHPEPDCNPSEAASEESNSEIEQEIPVEQKEGAFSNFPISEETIKLLKGRGVTFLFPIQAKTFHHVYSGKDLIAQARTGTGKTFSFAIPLIEKLHGELQDRKRGRAPQVLVLAPTRELANQVSKDFSDITKKLSVACFYGGTPYGGQFERMRNGIDILVGTPGRIKDHIQNGKLDLTKLKHVVLDEVDQMLDMGFADQVEEILSVAYKKDSEDNPQTLLFSATCPHWVFNVAKKYMKSTYEQVDLIGKKTQKTAITVEHLAIKCHWTQRAAVIGDVIRVYSGHQGRTIIFCETKKEAQELSQNSAIKQDAQSLHGDIPQKQREITLKGFRNGSFGVLVATNVAARGLDIPEVDLVIQSSPPKDVESYIHRSGRTGRAGRTGVCICFYQHKEEYQLVQVEQKAGIKFKRIGVPSATEIIKASSKDAIRLLDSVPPTAISHFKQSAEKLIEEKGAVEALAAALAHISGATSVDQRSLINSNVGFVTMILQCSIEMPNISYAWKELKEQLGEEIDSKVKGMVFLKGKLGVCFDVPTASVTEIQEKWHDSRRWQLSVATEQPELEGPREGYGGFRGQREGSRGFRGQRDGNRRFRGQREGSRGPRGQRSGGGNKSNRSQNKGQKRSFSKAFGQ

Variants of: B1
Conditions: with ncap_sars2 N

Row | Variant | effect of a mutation on the interaction
1 | S375L;A376E | with no effect
2 | D339H;E340G | with no effect
